Test results published in patent US20230057847A1, “GLP2 RECEPTOR AGONISTS AND METHODS OF USE” (The Scripps Research Institute, priority 2019, published 2023).
Bridges are numbered along the chain shown (N, C = ends). Where no end group is shown, it is not given here. [ ]: non-standard residue; d: D form. Nle = CCCC[C@H](N)C(=O)O; Nva = CCC[C@H](N)C(=O)O; L5A = not defined here; A1 = not defined here; K1 = not defined here; K5 = not defined here; Aib = CC(C)(N)C(=O)O

T1: human GLP-2R (human, UniProt O95838 1-553)
T1 sequence (looked up): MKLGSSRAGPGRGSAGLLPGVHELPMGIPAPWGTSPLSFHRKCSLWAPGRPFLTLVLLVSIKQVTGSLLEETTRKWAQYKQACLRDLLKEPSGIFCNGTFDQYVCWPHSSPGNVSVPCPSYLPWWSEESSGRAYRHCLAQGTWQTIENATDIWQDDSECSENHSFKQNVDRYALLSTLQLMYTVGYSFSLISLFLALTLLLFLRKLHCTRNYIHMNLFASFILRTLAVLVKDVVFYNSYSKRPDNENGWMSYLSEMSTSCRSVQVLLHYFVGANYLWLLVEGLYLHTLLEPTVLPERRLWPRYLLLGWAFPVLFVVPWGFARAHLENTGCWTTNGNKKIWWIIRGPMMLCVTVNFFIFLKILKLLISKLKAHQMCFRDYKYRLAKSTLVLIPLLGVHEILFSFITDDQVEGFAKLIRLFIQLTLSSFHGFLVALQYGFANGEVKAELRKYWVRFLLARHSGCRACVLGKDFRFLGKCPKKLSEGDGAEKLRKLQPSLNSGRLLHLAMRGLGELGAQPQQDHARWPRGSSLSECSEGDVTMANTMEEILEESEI

B1: Conjugate 11: GLP2-2G-10Nle-1K-EX4 (SEQ ID NO. 10) with staple K5 at positions 17, 24 (peptide)
peptide: HGDGSFSDELNTILDNKAARDFIKWLIQTKITDPSSGAPPPS
modifications: not fully specified; here or on the partner: Nle at 10; staple K5 (lactam) attached at positions 17, 24 (lysines)

Target: 168 GPCR targets (gpcrMAX Panel by DiscoverRx)
Assay: cell-based or functional assay
Conditions: not given

Molecule	PathHunter beta-arrestin enzyme fragment complementation, agonist mode, % activity [% activity]	PathHunter beta-arrestin enzyme fragment complementation, antagonist mode, % inhibition [% inhibition]
HGDGSFSDEMNTILDNCAARDFICWLIQTKITDPSSGAPPPS (linker 17-24 via L5A; not fully specified; ends not checked) [Conjugate 1: GLP2-2G-1-EX4 (SEQ ID NO. 1) with staple L5A at positions 17, 24]	< 30	< 35
B1	< 30	< 35

Tested on: mouse model of environmental enteric dysfunction (EED)
Assay: Weaning undernutrition mouse model of environmental enteric dysfunction (EED)
Assay type: in vivo, mice
Conditions: animals weaned to CD and to RBD diet, vs untreated
Method: A weaning undernutrition model was used to assess the ability of GLP2-2G-10Nle-1K-EX4-K5 to treat environmental enteric dysfunction (EED). All dams were placed on an isocaloric Northeast Brazil (Regional Basic Diet—RBD), which was moderately deficient in protein, fat and minerals when their pups were 10 days old. At weaning (3 weeks of age), pups were placed on either a standard control diet (CD) or continued on RBD. At 4 weeks of age, weanlings were given drug or placebo (0.1 mg/kg formulated in PBS (vehicle)) once a day subcutaneously for 2-3 weeks. Bodyweight and food consumption were measured twice weekly. Stool was collected at weaning, 6 weeks of age, and 8 weeks of age for calorimetry and microbiome. Oral FITC-dextran was used as a measurement of barrier function. At 6 weeks of age, mice were euthanized, and jejunal tissue was collected for morphology, immunohistochemistry, and for chamber analysis of transmucosal resistance and permeability.

Molecule	length of the small intestine
CC[C@H](C)[C@H](NC(=O)[C@H](Cc1ccccc1)NC(=O)[C@H](CC(=O)O)NC(=O)[C@H](CCCNC(=N)N)NC(=O)[C@H](C)NC(=O)[C@H](C)NC(=O)[C@H](CC(C)C)NC(=O)[C@H](CC(N)=O)NC(=O)[C@H](CC(=O)O)NC(=O)[C@H](CC(C)C)NC(=O)[C@@H](NC(=O)[C@@H](NC(=O)[C@H](CC(N)=O)NC(=O)[C@H](CCSC)NC(=O)[C@H](CCC(=O)O)NC(=O)[C@H](CC(=O)O)NC(=O)[C@H](CO)NC(=O)[C@H](Cc1ccccc1)NC(=O)[C@H](CO)NC(=O)CNC(=O)[C@H](CC(=O)O)NC(=O)[C@H](C)NC(=O)[C@@H](N)Cc1c[nH]cn1)[C@@H](C)O)[C@@H](C)CC)C(=O)N[C@@H](CC(N)=O)C(=O)N[C@@H](Cc1c[nH]c2ccccc12)C(=O)N[C@@H](CC(C)C)C(=O)N[C@H](C(=O)N[C@@H](CCC(N)=O)C(=O)N[C@H](C(=O)N[C@@H](CCCCN)C(=O)N[C@H](C(=O)N[C@H](C(=O)N[C@@H](CC(=O)O)C(=O)O)[C@@H](C)O)[C@@H](C)CC)[C@@H](C)O)[C@@H](C)CC [GLP-2, reference compound]	significant increase

Target: T1, human GLP-2R
Assay: cell-based or functional assay
Conditions: not given

Molecule	GLP-2R - cAMP 0% FBS/nM (EC50, CRE-luciferase reporter) [nM]	GLP-2R - cAMP 10% FBS/nM (EC50, CRE-luciferase reporter) [nM]
HGDGSFSDEMCTILDNLCARDFINWLIQTKITDPSSGAPPPS (linker 11-18 via L5A; ends not checked) [Conjugate 10: GLP2-2G-6-EX4 (SEQ ID NO. 9) with staple L5A at positions 11, 18]	2.09	102
HGDGSFSDELNTILDNCAARDFICWLIQTKITDPSSGAPPPS (linker 17-24 via L5A; reading uncertain) [Conjugate 3: GLP2-2G-10L-1-EX4 (SEQ ID NO. 3) with staple L5A at positions 17, 24]	0.87	
HGDGSFSDEMNTILDNKAARDFIKWLIQTKITDPSSGAPPPS (bridge 17-24 via K1; ends not checked) [Conjugate 19: GLP2-2G-1K-EX4 (SEQ ID NO. 16) with staple K1 at positions 17, 24]	0.15	
HGDGSFSDEMNTILDNKAARDFIKWLIQTKITDPSSGAPPPS (bridge 17-24; not fully specified (bridges); ends not checked) [Conjugate 17: GLP2-2G-1K-EX4 (SEQ ID NO. 16) with staple K5 at positions 17, 24]	1.07	
HGDGSFSDEMNTILDNXAARDFIXWLIQTKITDPSSGAPPPS (Orn at 17 and 24; staple K5 attached at positions 17, 24 (ornithines)) [Conjugate 25: GLP2-2G-1Orn-EX4 (SEQ ID NO. 20) with staple K5 at positions 17, 24]	2.11	
HGDGSFSDEVNTILDNCAARDFICWLIQTKITDPSSGAPPPS (linker 17-24 via L5A; reading uncertain) [Conjugate 7: GLP2-2G-10V-1-EX4 (SEQ ID NO. 7) with staple L5A at positions 17, 24]	1.45	
HGDGSFSDEMNTILDNKAARDFIKWLIQTKITDPSSGAPPPS (bridge 17-24 via A1; ends not checked) [Conjugate 20: GLP2-2G-1K-EX4 (SEQ ID NO. 16) with staple A1 at positions 17, 24]	0.09	
HGDGSFSDKMNTILDKLAARDFINWLIQTKITDPSSGAPPPS (bridge 9-16; not fully specified (bridges); ends not checked) [Conjugate 23: GLP2-2G-5K-EX4 (SEQ ID NO. 18) with staple K5 at positions 9, 16]	1.25	
HGDGSFSDE[Nle]NSLLDNKAARDFIKWLIQTKITDPSSGAPPPS (bridge 17-24; not fully specified (bridges); ends not checked) [Conjugate 13: GLP2-2G-10Nle-12S-13L-1K-EX4 (SEQ ID NO. 12) with staple K5 at positions 17, 24]	3.78	
HGDGSFSDE[Nva]NTILDNCAARDFICWLIQTKITDPSSGAPPPS (linker 17-24 via L5A; reading uncertain) [Conjugate 6: GLP2-2G-10Nva-1-EX4 (SEQ ID NO. 6) with staple L5A at positions 17, 24]	5.74	
HGDGSFSDE[Nle]NTA[Nle]DNKAARDFIKWLIQTKITDPSSGAPPPS (linker 17-24 via K5; reading uncertain) [Conjugate 14: GLP2-2G-10Nle-13A-14Nle-1K-EX4 (SEQ ID NO. 13) with staple K5 at positions 17, 24]	2.68	
HGDGSFSDE[Nle]NT[Nle][Nle]DNKAARDFIKWLIQTKITDPSSGAPPPS (linker 17-24 via K5; reading uncertain) [Conjugate 15: GLP2-2G-10Nle-13Nle-14Nle-1K-EX4 (SEQ ID NO. 14) with staple K5 at positions 17, 24]	1.99	
HGDGSFSDK[Nle]NTILDKLAARDFINWLIQTKITDPSSGAPPPS (linker 9-16 via K5; reading uncertain) [Conjugate 24: GLP2-2G-10Nle-5K-EX4 (SEQ ID NO. 19) with staple K5 at positions 9, 16]	8.36	
HGDGSFSDE[Nle][dF]TILDNKAARDFIKWLIQTKITDPSSGAPPPS (bridge 17-24; not fully specified (bridges); ends not checked) [Conjugate 12: GLP2-2G-10Nle-11f-1K-EX4 (SEQ ID NO. 11) with staple K5 at positions 17, 24]	2.13	
HGDGSFSDE[Aib]NTILDNCAARDFICWLIQTKITDPSSGAPPPS (linker 17-24 via L5A; reading uncertain) [Conjugate 5: GLP2-2G-10Aib-1-EX4 (SEQ ID NO. 5) with staple L5A at positions 17, 24]	8.71	
HGDGSFSDE[Nle]ATA[Nle]DAKAARDFIKWLIQTKITDPSSGAPPPS (linker 17-24 via K5; reading uncertain)	1.33	
HGDGSFSDEM[dF]TILDNKAARDFIKWLIQTKITDPSSGAPPPS (linker 17-24 via K5; reading uncertain) [Conjugate 18: GLP2-2G-11f-1K-EX4 (SEQ ID NO. 17) with staple K5 at positions 17, 24]	1.41	

Target: GIPR
Assay: cell-based or functional assay
Conditions: not given

Molecule	IC50 [nM] (665/615 ratio, free cAMP)
GIP (ligand)	0.02

Target: mouse GLP2R (mouse) (UniProt Q5IXF8)
Sequence (Q5IXF8 whole entry): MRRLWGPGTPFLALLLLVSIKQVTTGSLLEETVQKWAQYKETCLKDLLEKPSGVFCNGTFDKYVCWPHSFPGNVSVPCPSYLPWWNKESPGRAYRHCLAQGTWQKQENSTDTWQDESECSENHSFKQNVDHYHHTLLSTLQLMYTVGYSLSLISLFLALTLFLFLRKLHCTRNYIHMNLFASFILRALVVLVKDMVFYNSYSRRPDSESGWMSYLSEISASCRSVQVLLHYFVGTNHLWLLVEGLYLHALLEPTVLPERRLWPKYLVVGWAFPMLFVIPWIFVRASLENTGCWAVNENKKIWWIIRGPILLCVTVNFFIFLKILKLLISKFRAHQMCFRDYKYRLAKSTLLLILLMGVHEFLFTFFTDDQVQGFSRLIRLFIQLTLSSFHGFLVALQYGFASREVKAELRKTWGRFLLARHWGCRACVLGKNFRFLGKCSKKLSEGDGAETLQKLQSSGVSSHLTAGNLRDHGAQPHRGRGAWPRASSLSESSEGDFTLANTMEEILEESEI
Assay: cell-based or functional assay
Conditions: not given

Molecule	IC50 [nM] (665/615 ratio, free cAMP)
Apraglutide (peptide)	0.04
